# Experimental data from publication PMC5864733.
# Biological target: CsrA (Escherichia coli EPEC O127:H6 E2348/69, UniProt B7UHB4 1-61)
# Experiment: EMSA; no CesT
# Conditions: protein: recombinant; tags: GST tag, cleaved by PreScission (pGEX-6P-1); chain copies: 2; label: none (ethidium bromide stain); single strand, heated to 80 C and slowly cooled
# Sequence of CsrA (B7UHB4 whole entry): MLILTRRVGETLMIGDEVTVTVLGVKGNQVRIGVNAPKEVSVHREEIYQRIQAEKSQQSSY
binder,measurement,value
CACUAAUAAUAUCAAUGGAUUGAUAUUAUUAAUG (structured_RNA) [nleA 5'UTR RNA],binding result,binds
